Measurements as given in PMC10234438.

tested on: IMP3 (GST-/His-tagged) (human); experiment: EMSA; conditions: EMSA: 10 mM Tris-HCl pH 7.5, 150 mM NaCl, 0.5 mM EDTA, 0.5 mM DTT, 0.1% NP-40, 5% glycerol, RNaseOUT, 1 ug tRNA, 1 ug BSA; 5 nM RNA; 30 min at 25 C, then 5 min …

101-mer linear and ANKRD17 linear are within 1.5-fold of each other in Kd: 9.3 nM for the first, 8.7 nM for the second.

all-UG linear was tested, and the Kd was 48.8 nM.

same assay, conditions: circular (T4 RNA ligase); EMSA: 10 mM Tris-HCl pH 7.5, 150 mM NaCl, 0.5 mM EDTA, 0.5 mM DTT, 0.1% NP-40, 5% glycerol, RNaseOUT, 1 ug tRNA, 1 ug BSA; 5 nM RNA; 30 min at 25 C, then 5 min …

First: all-UG circRNA
Second: 101-mer circRNA
The Kd of the first is 5.8-fold higher: 60.3 nM for the first, 10.4 nM for the second.

Work on ANKRD17 circRNA yielded a Kd of 8.5 nM.
